One assay relates to HIV-1 B-HXB2 virions. The assay can be described thus: Immunogold transmission electron microscopy. The assay is classed as binding. The following applies: 20 μg/ml, 37° C., 1 h; anti-hBD antibody and 10-nm gold IgG. The procedure: (a) CXCR4 tropic HXB2 and CCR5 tropic 97ZA003 HIV-1 strains were incubated with 20 μg/ml hBD-1, -2, or -3 in 10 mM PB for 1 h. Virions were pelleted, washed extensively with PBS and used to infect GHOST X4/R5 cells. RT activity was measured 48 h post-infection. The final two columns represent an additional 20 μg/ml of hBD-2 or -3 during infection. (b) Immunoelectron microscopy analysis showing the interaction of hBD-2 and -3 with HIV-1 and with MT4 cell membrane. X4 HIV-1 HXB2 strain and MT4 cells were incubated with hBD-2 or -3 (20 μg/ml), 37° C., 1 h. Polyclonal anti-hBD-2 or -3 antibodies were added, followed by addition of secondary IgG conjugated with 10-nm gold particles. Arrows indicate hBD-2 and -3 localization to virions and cell membrane.
MT4 cells in RPMI, or X4 strain B-HXB2 viral particles in 10 mM phosphate buffer (PB), were incubated with 20 μg/ml hBD-2 and -3 at 37° C. for 1 h. Cells and virions were centrifuged (15 min, 1200 rpm for cells; 30 min, 35 000 3 g for virus) and washed twice with PBS to remove unbound hBD. Cells and virions were mixed and fixed with 4% paraformaldehyde/0.5% glutaraldehyde, dehydrated, embedded in LR WHITE resin (London Resin Company Ltd, Berkshire, UK), and labeled after embedding as described [Briquet et al.]. […]

In a further assay the target is CCR5 (Homo sapiens, UniProt P51681). The assay can be described thus: Confocal microscopy of co-receptor surface expression on CEM X4/R5 cells. In kind it is cell-based. Also noted: endogenous in cells. The note with it: 20 μg/ml, 3 h. The procedure:
(§1) CEM X4/R5 cells were grown in RPMI-1640 medium containing 5% FBS and 400 μg/ml G418. Cells were collected, washed twice with PBS, resuspended in RPMI with 0.5% FBS or supplemented with 20 μg/ml recombinant hBD-2 or -3, and incubated at 37° C., 5% CO2 for 3 h. A second aliquot of cells, after incubation with hBD, was treated with FACS/Perm (PharMingen) at room temperature for 10 min and then washed three times with PBS. A third aliquot of cells was fixed in 1% paraformaldehyde on ice for 30 min, washed three times with PBS, and then incubated with 20 μg/ml hBD-2 or -3. Cells were stained with PE-labeled CXCR4 or CCR5 (PharMingen), or with primary goat anti-hBD-2 antibodies (Cell Sciences, Norwood, Mass., USA), or with rabbit anti-hBD-3 antibodies (Orbingen, San Diego, Calif., USA) at room temperature for 90 min, followed by washing three times with PBS. Fluorescein isothiocyanate-labeled rabbit anti-goat IgG (Jackson ImmunoResearch, West Grove, Pa., USA) for detection of hBD-2, or goat anti-rabbit IgG (Sigma) for detection of hBD-3, were added, respectively, at room temperature and incubated for 90 min. […] All samples were observed using a dual scanning confocal microscope system (Zeiss LSM 510, Oberkochem, Germany) and analyzed with the Zeiss LSM 5 Image Browser. […]

Another assay addresses CXCR4 (Homo sapiens, UniProt P61073). The description is as above. In kind it is cell-based. Also noted: endogenous in cells. The note with it: 20 μg/ml, 3 h. Here is the method: as §1

Here are results for one molecule from patent US7442375B2, “Compositions of beta-defensin inducing agents” (Case Western Reserve University, priority 2002, dated 2008).

CCR5, sequence (P51681 whole entry): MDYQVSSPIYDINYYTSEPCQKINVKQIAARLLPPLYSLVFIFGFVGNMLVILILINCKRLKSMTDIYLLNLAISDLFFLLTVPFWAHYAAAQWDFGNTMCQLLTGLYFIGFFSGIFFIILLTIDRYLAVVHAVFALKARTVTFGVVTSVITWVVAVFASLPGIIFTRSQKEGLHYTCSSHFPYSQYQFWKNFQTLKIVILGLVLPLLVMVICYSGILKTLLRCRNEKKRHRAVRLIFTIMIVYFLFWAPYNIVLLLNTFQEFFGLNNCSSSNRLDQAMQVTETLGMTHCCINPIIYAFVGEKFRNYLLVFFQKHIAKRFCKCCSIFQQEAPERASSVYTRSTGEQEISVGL
CXCR4, sequence (P61073 whole entry): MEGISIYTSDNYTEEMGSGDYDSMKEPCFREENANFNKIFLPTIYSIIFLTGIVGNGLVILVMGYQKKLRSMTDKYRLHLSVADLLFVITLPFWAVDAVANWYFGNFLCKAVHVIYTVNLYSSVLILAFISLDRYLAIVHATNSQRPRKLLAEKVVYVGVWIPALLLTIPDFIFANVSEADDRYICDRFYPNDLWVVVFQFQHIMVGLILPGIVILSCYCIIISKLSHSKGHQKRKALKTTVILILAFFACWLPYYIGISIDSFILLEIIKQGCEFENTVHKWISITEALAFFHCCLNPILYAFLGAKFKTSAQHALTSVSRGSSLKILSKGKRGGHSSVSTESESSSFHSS

B1: hBD-3: Recombinant human β-defensin 3 produced using an hBD-3-His tag fusion construct cloned into pET-30c; exemplary sequence SEQ ID NO:15 (protein, listed as Homo sapiens)
chain: MRIHYLLFALLFLFLVPVPGHGGIINTLQKYYCRVRGGRCAVLSCLPKEEQIGKCSTRGRKCCRRKK
modifications: not fully specified (C-terminus); ends and bridges not checked
As to B1, in the assay with HIV-1 B-HXB2 virions, the “gold particles bound to virions” value was “bound both to virions and to the MT4 cellular membrane”. In addition, in the assay with CCR5, the “surface expression of CCR5” value is “not”. In addition, the “surface expression of CXCR4” value with CXCR4 is reported as “dramatically decreased”.
